45 molecules from patent US20130053541A1, “METHODS FOR DISCOVERING MOLECULES THAT BIND TO PROTEINS” (LYNNTECH, INC., priority 2011, published 2013) can be followed below.

As a reminder, the Kd is a measure of binding affinity in units of concentration. Higher therefore signals a looser complex.

The labels stand for the following.
T1: native human ESRRG protein (Estrogen-receptor related receptor gamma) (human, UniProt P62508 229-458, limits assumed)
T1 construct: the screened protein is called 'native human ESRRG protein'; also called ESSRG; ERRγ
T1 sequence (looked up): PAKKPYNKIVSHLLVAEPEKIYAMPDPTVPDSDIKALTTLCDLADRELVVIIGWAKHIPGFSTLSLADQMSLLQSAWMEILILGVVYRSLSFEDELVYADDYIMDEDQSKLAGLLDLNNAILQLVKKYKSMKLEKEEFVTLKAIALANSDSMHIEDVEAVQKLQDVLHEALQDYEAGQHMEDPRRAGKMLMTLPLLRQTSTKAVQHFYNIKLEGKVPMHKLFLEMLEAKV

Where no end group is shown, it is not given here.

The first assay addresses T1, native human ESRRG protein …. The experiment in a line: custom peptide microarray density chip.
As for Ac-IFSEIRVY, binding was characterised by a dissociation constant (Kd) of 16.1 nM.

In turn, Ac-IFSEMRVY displayed a dissociation constant (Kd) of 7.88 nM. Same read-out and setting: as for Ac-IFSKIRVY, the figure is 15.6 nM. On the same count and under the same terms, the same measure for Ac-VQYNYLQR: 19.3 nM. As for Ac-SLLFHLLK, the equilibrium dissociation constant (Kd) was determined as 26.7 nM. In the case of Ac-QYPKMQRL, the dissociation constant Kd is 17.9 nM.

For the molecule Ac-NNSWRLHL, the Kd was determined as 29.4 nM. The same measure, in the same setting: as for Ac-IFSYVRVY, the figure is 15.4 nM.

Ac-IFSYPRVY displayed a Kd of 17.5 nM. Regarding Ac-NIKLFANN, the Kd was determined as 24.7 nM.

The molecule Ac-LYLLKHHP gave a dissociation constant Kd of 29.1 nM. Consider Ac-IKQNHNNS, for which the Kd is 12.5 nM. Same read-out and setting: as for Ac-IKQDHNNS, the figure is 15.7 nM. The same measure, in the same setting: as for Ac-AIRLFLMG, the figure is 13.8 nM. Ac-NSLRKHLL gave a Kd of 24.4 nM.

In turn, Ac-NSLLKHLL gave a Kd of 20.7 nM.

Molecule Ac-NSLKKHLL had a Kd of 18.3 nM. This Kd and that of the molecule before are within 1.5-fold of each other.

Consider Ac-ANNIRLLH, for which the affinity, expressed as Kd, was 18.9 nM. The molecule Ac-ANNSRLLH registered a Kd of 28.9 nM.

In turn, Ac-ANNLRLLH yielded a Kd of 28.9 nM. Consider Ac-ANNVRLLH, for which the affinity, expressed as Kd, was 30.5 nM. The Kd values of the last two molecules are within 1.5-fold of each other. Turning to Ac-VLLHYGLY, the Kd was found to be 27.4 nM. This Kd and that of the molecule before are within 1.5-fold of each other. The same measure, in the same setting: the same measure for Ac-FYNMYLLN: 27.4 nM; for Ac-FWKGHFDF: 9.16 nM.

For the next assay the target is unchanged. The experiment in a line: peptide microarray, Iteration 2; bound ESRRG detected with fluorescent anti-ESRRG mAb. On the procedure:
(§1) Screening was carried out typically by hybridization of the protein (1 μg/mL) against the array for 1 h at 4° C.; detection of bound protein was carried out using a fluorescently labeled anti-ESRRG mAb. (Direct labeling of ESRRG and alternative detection strategies are equally valid).
Iterative sequence expansion and arraying of 10 highest binding ligands to ESRRG from Iteration 1 was carried out and the new peptide sequences were synthesized on an array and screened against the protein, as described above. In this step, the central 2 amino acids (core) in peptide sequences were maintained unchanged while outlying amino acids (2, 3, 6, and 7) were permuted (using Tier 1 and Tier 3 substitutions) in a ‘cipher’ or ‘combination’ lock approach.
Regarding Ac-LYLLKHHP, the “Sample B (Probe) Signal” value was 2530 fluorescence intensity units and the “log2 (Sample B/Sample A)” value was determined as 3.05. For Ac-VLLHYGLY, the “Sample B (Probe) Signal” value was 1800 fluorescence intensity units and the “log2 (Sample B/Sample A)” value came to 2.37. Taken in the same sequence, the figures for Ac-FYNMYLLN were 1560 fluorescence intensity units and 2.63.

As to Ac-FWKGHFDF, the “Sample B (Probe) Signal” value was 1460 fluorescence intensity units and the “log2 (Sample B/Sample A)” value worked out at 2.66.

For the next assay the target is unchanged. The experiment in a line: peptide microarray, Iteration 1; bound ESRRG detected with fluorescent anti-ESRRG mAb. On the procedure:
as §1
Daughter candidate ligands and their new Tier 3 and/or Tier 1 based combinations were synthesized in situ on an addressable peptide microarray and screened against native human ESRRG protein in order to determine sequences that bind to this protein. Bound protein was detected by a fluorescently labeled anti-ESRRG mAb. […] Excess (100×) competing biological matrices (human serum, HSA/BSA or bacterial protein extract) were used as backgrounds to select for specific ligands to the protein. Other competing proteins can be added to background for specificity selection and directed evolution of ligands.
Consider Ac-RKALVGKY, for which the “Sample B (Probe) Signal” value is 868 fluorescence intensity units and the “log2 (Sample B/Sample A)” value was 4.95.

In the case of Ac-LLHLQKSQ, the “Sample B (Probe) Signal” value is 745 fluorescence intensity units and the “log2 (Sample B/Sample A)” value came to 5.64.

On to Ac-NSLSWHLL, for which the “Sample B (Probe) Signal” value was 1040 fluorescence intensity units and the “log2 (Sample B/Sample A)” value was 5.34. On the same counts, the results for Ac-NNSWSLHL are 729 fluorescence intensity units and 4.95. With Ac-KSLLQQLL, the “Sample B (Probe) Signal” value is 7390 fluorescence intensity units and the “log2 (Sample B/Sample A)” value came to 6.38. On the same counts, the results for Ac-IKQNHNNS are 794 fluorescence intensity units and 9.63. For Ac-IKQDHNNS, the “Sample B (Probe) Signal” value was 701 fluorescence intensity units and the “log2 (Sample B/Sample A)” value came out at 9.45. Taken in the same sequence, the figures for Ac-LHLKGSQT were 622 fluorescence intensity units and 6.48.

Turning to Ac-AIRGHLMG, the “Sample B (Probe) Signal” value is 935 fluorescence intensity units and the “log2 (Sample B/Sample A)” value was found to be 5.63. Taken in the same sequence, the figures for Ac-AIRVHLMG were 690 fluorescence intensity units and 5.87. Consider Ac-NIKVHANN, for which the “Sample B (Probe) Signal” value was 863 fluorescence intensity units and the “log2 (Sample B/Sample A)” value came to 6.58. Taken in the same sequence, the figures for Ac-NSLRKHLL were 856 fluorescence intensity units and 5.36. As to Ac-NSLLKHLL, the “Sample B (Probe) Signal” value was 14800 fluorescence intensity units and the “log2 (Sample B/Sample A)” value was determined as 7.65. Taken in the same sequence, the figures for Ac-NSLKKHLL were 9220 fluorescence intensity units and 10.8. With Ac-ANNSRLLH, the “Sample B (Probe) Signal” value was 1480 fluorescence intensity units and the “log2 (Sample B/Sample A)” value came to 5.54. Take Ac-ANNVSLLH: the “Sample B (Probe) Signal” value is 1820 fluorescence intensity units and the “log2 (Sample B/Sample A)” value amounted to 4.87. Take Ac-ANNVLLLH: the “Sample B (Probe) Signal” value was 2000 fluorescence intensity units and the “log2 (Sample B/Sample A)” value was found to be 4.92. On to Ac-ANNVKLLH, for which the “Sample B (Probe) Signal” value was 1720 fluorescence intensity units and the “log2 (Sample B/Sample A)” value came out at 5.04. For Ac-ANNSWLLH, the “Sample B (Probe) Signal” value was 1260 fluorescence intensity units and the “log2 (Sample B/Sample A)” value is 5.97. Ac-AANMLLLL: the “Sample B (Probe) Signal” value was 1190 fluorescence intensity units and the “log2 (Sample B/Sample A)” value amounted to 5.52. As to Ac-AANYVLLL, the “Sample B (Probe) Signal” value was 2200 fluorescence intensity units and the “log2 (Sample B/Sample A)” value was 7.22. On the same counts, the results for Ac-AANMSLLL are 1220 fluorescence intensity units and 6.16. As to Ac-AANYILLL, the “Sample B (Probe) Signal” value is 2010 fluorescence intensity units and the “log2 (Sample B/Sample A)” value came to 7.19. Taken in the same sequence, the figures for Ac-AANMYLLL were 4010 fluorescence intensity units and 5.95. Taken in the same sequence, the figures for Ac-AANNYLLL were 3440 fluorescence intensity units and 6.78.

Consider Ac-AANYLLLL, for which the “Sample B (Probe) Signal” value is 3760 fluorescence intensity units and the “log2 (Sample B/Sample A)” value turned out to be 7.4. In the case of Ac-RKAIFGKY, the “Sample B (Probe) Signal” value was 818 fluorescence intensity units and the “log2 (Sample B/Sample A)” value stood at 5.11.
